{
  "source": "paper PMC11006913",
  "assay_in_all_cases": "PBM",
  "key": {"PROP1 F88S (human)": {"test_system": "PROP1 F88S (human)", "settings": "contrastQ 3.19E-277; Universal PBM, 200 nM protein in PBS; temperature and pH not stated in the material"}, "HESX1 E149K (human)": {"test_system": "HESX1 E149K (human)", "settings": "contrastQ 9.83E-08; Universal PBM, 200 nM protein in PBS; temperature and pH not stated in the material"}, "PROP1 R99Q (human)": {"test_system": "PROP1 R99Q (human)", "settings": "contrastQ 2.52E-38; Universal PBM, 200 nM protein in PBS; temperature and pH not stated in the material"}, "HESX1 R160C (human)": {"test_system": "HESX1 R160C (human)", "settings": "contrastQ 1.53E-116; Universal PBM, 200 nM protein in PBS; temperature and pH not stated in the material"}, "HESX1 R109Q (human)": {"test_system": "HESX1 R109Q (human)", "settings": "contrastQ 1.24E-92; Universal PBM, 200 nM protein in PBS; temperature and pH not stated in the material"}, "HESX1 N125S (human)": {"test_system": "HESX1 N125S (human)", "settings": "Universal PBM, 200 nM protein in PBS, temperature and pH not stated in the material"}, "HOXD13 S316C (human)": {"test_system": "HOXD13 S316C (human)", "settings": "contrastQ 0.9698003 (no significant change); Universal PBM, 200 nM protein in PBS; temperature and pH not stated in the material"}, "HOXD13 I322L (human)": {"test_system": "HOXD13 I322L (human)", "settings": "Universal PBM, 200 nM protein in PBS, temperature and pH not stated in the material"}, "SHOX R173C (human)": {"test_system": "SHOX R173C (human)", "settings": "contrastQ 1.38E-15; Universal PBM, 200 nM protein in PBS; temperature and pH not stated in the material"}, "NKX2-5 K183E (human)": {"test_system": "NKX2-5 K183E (human)", "settings": "Universal PBM, 200 nM protein in PBS, temperature and pH not stated in the material"}, "ARX T333N (human)": {"test_system": "ARX T333N (human)", "settings": "contrastQ 5.30E-28; Universal PBM, 200 nM protein in PBS; temperature and pH not stated in the material"}, "ARX P353R (human)": {"test_system": "ARX P353R (human)", "settings": "Universal PBM, 200 nM protein in PBS; temperature and pH not stated in the material"}, "ARX L343Q (human)": {"test_system": "ARX L343Q (human)", "settings": "contrastQ 3.05E-194; Universal PBM, 200 nM protein in PBS; temperature and pH not stated in the material"}, "HOXD13 T313R (human)": {"test_system": "HOXD13 T313R (human)", "settings": "contrastQ 1.85E-52; Universal PBM, 200 nM protein in PBS; temperature and pH not stated in the material"}},
  "data": [
    {"substance": "PBM 8-mer CTAATTGA", "values": [
      {"measurement": "binding signal (contrast difference vs reference)", "setting": "PROP1 F88S (human)", "value": -4.12},
      {"measurement": "binding signal (contrast difference vs reference)", "setting": "HESX1 E149K (human)", "value": -0.502},
      {"measurement": "binding signal (contrast difference vs reference)", "setting": "PROP1 R99Q (human)", "value": -0.687},
      {"measurement": "binding signal (contrast difference vs reference)", "setting": "HESX1 R160C (human)", "value": -2.1},
      {"measurement": "binding signal (contrast difference vs reference)", "setting": "HESX1 R109Q (human)", "value": -3.4},
      {"measurement": "binding signal (contrast difference vs reference)", "setting": "HESX1 N125S (human); contrastQ 0.9069244 (no significant change)", "value": -0.172}
    ]},
    {"substance": "PBM 8-mer TCGTAAAA", "values": [
      {"measurement": "binding signal (contrast difference vs reference)", "setting": "HOXD13 S316C (human)", "value": 0.128},
      {"measurement": "binding signal (contrast difference vs reference)", "setting": "HOXD13 I322L (human); contrastQ 3.41E-01 (no significant change)", "value": 0.259}
    ]},
    {"substance": "PBM 8-mer ATTATAAT", "values": [
      {"measurement": "binding signal (contrast difference vs reference)", "setting": "SHOX R173C (human)", "value": -1.91}
    ]},
    {"substance": "PBM 8-mer GCACTTGA", "values": [
      {"measurement": "binding signal (contrast difference vs reference)", "setting": "NKX2-5 K183E (human); contrastQ 1.87E-56", "value": -1.44}
    ]},
    {"substance": "PBM 8-mer CAATTAAA", "values": [
      {"measurement": "binding signal (contrast difference vs reference)", "setting": "HESX1 N125S (human); contrastQ 0.7783541 (no significant change)", "value": -0.277}
    ]},
    {"substance": "PBM 8-mer TCATAAAA", "values": [
      {"measurement": "binding signal (contrast difference vs reference)", "setting": "HOXD13 S316C (human)", "value": 0.133},
      {"measurement": "binding signal (contrast difference vs reference)", "setting": "HOXD13 I322L (human); contrastQ 8.96E-16", "value": -1.15}
    ]},
    {"substance": "PBM 8-mer GTTAATTA", "values": [
      {"measurement": "binding signal (contrast difference vs reference)", "setting": "ARX T333N (human)", "value": -0.803},
      {"measurement": "binding signal (contrast difference vs reference)", "setting": "ARX P353R (human)", "value": -2.42},
      {"measurement": "binding signal (contrast difference vs reference)", "setting": "ARX L343Q (human)", "value": -2.29}
    ]},
    {"substance": "PBM 8-mer CAATAAAA", "values": [
      {"measurement": "binding signal (contrast difference vs reference)", "setting": "HOXD13 T313R (human)", "value": -1.23}
    ]},
    {"substance": "PBM 8-mer GCACTTCA", "values": [
      {"measurement": "binding signal (contrast difference vs reference)", "setting": "NKX2-5 K183E (human); contrastQ 5.13E-38", "value": -1.27}
    ]}
  ]
}
